Reference: PMC5531734 (Molecular Biology of the Cell, 2017)

Biological target: Na/K-ATPase α1-β2 (ATP1A1 with ATP1B2) (human, UniProt P05023-1 1-1023; P14415 1-290)
Assay: binding to transfected cells, Western blot of washed cell pellets

retinoschisin binding relative to α3-β2 (densitometry): 1.5 fold of binding to α3-β2
B1: retinoschisin (natural protein)
chain: STEDEGEDPWYQKACKCDCQGGPNALWSAGATSLDCIPECPYHKPLGFESGEVTPDQITCSNPEQYVGWYSSWTANKARLNSQGFGCAWLSKFQDSSQWLQIDLKEIKVISGILTQGRCDIDEWMTKYSVQYRTDERLNWIYYKDQTGNNRVFYGNSDRTSTVQNLLRPPIISRFIRLIPLGWHVRIAIRMELLECVSKCA
